Assay results published in US20080274095A1, “Biocides” (priority 2004, published 2008).

B1: Lactoferrin (protein, UniProt P02788 20-710, looked up)
Lactotransferrin: GRRRSVQWCAVSQPEATKCFQWQRNMRKVRGPPVSCIKRDSPIQCIQAIAENRADAVTLDGGFIYEAGLAPYKLRPVAAEVYGTERQPRTHYYAVAVVKKGGSFQLNELQGLKSCHTGLRRTAGWNVPIGTLRPFLNWTGPPEPIEAAVARFFSASCVPGADKGQFPNLCRLCAGTGENKCAFSSQEPYFSYSGAFKCLRDGAGDVAFIRESTVFEDLSDEAERDEYELLCPDNTRKPVDKFKDCHLARVPSHAVVARSVNGKEDAIWNLLRQAQEKFGKDKSPKFQLFGSPSGQKDLLFKDSAIGFSRVPPRIDSGLYLGSGYFTAIQNLRKSEEEVAARRARVVWCAVGEQELRKCNQWSGLSEGSVTCSSASTTEDCIALVLKGEADAMSLDGGYVYTAGKCGLVPVLAENYKSQQSSDPDPNCVDRPVEGYLAVAVVRRSDTSLTWNSVKGKKSCHTAVDRTAGWNIPMGLLFNQTGSCKFDEYFSQSCAPGSDPRSNLCALCIGDEQGENKCVPNSNERYYGYTGAFRCLAENAGDVAFVKDVTVLQNTDGNNNEAWAKDLKLADFALLCLDGKRKPVTEARSCHLAMAPNHAVVSRMDKVERLKQVLLHQQAKFGRNGSDCPDKFCLFQSETKNLLFNDNTECLARLHGKTTYEKYLGPQYVAGITNLKKCSTSPLLEACEFLRK
notes: Sigma
B2: LPS-binding protein (protein, UniProt P18428 26-481, looked up)
Lipopolysaccharide-binding …: ANPGLVARITDKGLQYAAQEGLLALQSELLRITLPDFTGDLRIPHVGRGRYEFHSLNIHSCELLHSALRPVPGQGLSLSISDSSIRVQGRWKVRKSFFKLQGSFDVSVKGISISVNLLLGSESSGRPTVTASSCSSDIADVEVDMSGDLGWLLNLFHNQIESKFQKVLESRICEMIQKSVSSDLQPYLQTLPVTTEIDSFADIDYSLVEAPRATAQMLEVMFKGEIFHRNHRSPVTLLAAVMSLPEEHNKMVYFAISDYVFNTASLVYHEEGYLNFSITDDMIPPDSNIRLTTKSFRPFVPRLARLYPNMNLELQGSVPSAPLLNFSPGNLSVDPYMEIDAFVLLPSSSKEPVFRLSVATNVSATLTFNTSKITGFLKPGKVKVELKESKVGLFNAELLEALLNYYILNTFYPKFNDKLAEGFPLPLLKRVQLYDLGLQIHKDFLFLGANVQYMRV

Experiments:
Caco-2 Host Cells = test: Host cell toxicity assay by LDH release; format: cell-based, human
Method: Host cell toxicity assay was performed by measuring the release of lactate dehydrogenase (LDH) in the medium using a CYTOTOX 96 Non-Radioactive Cytotoxicity Assay kit (Promega, Madison, Wis.). Toxicity was therefore classified as non toxic 0-5% LDH release and mild toxicity 5-10% LDH release (ref).

[1] = Tobias et al. 1995; read-out: dissociation constant KD for LPS binding; cited from earlier work

Molecule | % LDH release (Caco-2 Host Cells; 10 μg/ml) | % LDH release (Caco-2 Host Cells; 100 μg/ml) | Kd [1]
B1 | 5.9 ± 1.2 % | 5.8 ± 3.1% | –
B2 | – | – | 3.5 nM
